Reference: the nanobody polyreactivity screen of Harvey et al. (2022)

Assay: yeast display, Sf9 membrane polyspecificity reagent, FACS + sequencing; frameworks hold sequencing errors
Summary of the method: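 In a synthetic yeast display library (Saccharomyces cerevisiae BJ5465), nanobody expression was induced with galactose for 36–48 hours. FACS gates were set low and high (top ~1%) using anti-HA fluorescence for expression and streptavidin fluorescence for binding of the Sf9 membrane reagent. Each polyreactivity label is drawn from the gate of origin.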

Row | Sequence | polyreactivity (PSR sort gate)
1 | QVQLVESGGGLVQAGGSLRLSCAASGIISGDYAMGWYRQAPGKERELVARITSGDSTNYADSVKGRFTISRDNAKNTVYLQMNSLNPEDTAVYYCAADRVWAYWTYGYWGQGTQVTVSS | low polyreactivity
2 | QVQLVESGGGLVQAGGSLRLSCAASGIISGEYAMGWYRQAPGKERELVAAIDYSGVSTYYADSVKGRFTISRDNAKNTVYLQMNSLKPEDTAVNYCAAYPSSEYDYWGQGTQVTVSS | low polyreactivity
3 | QVQLVESGGGLVQAGGSLRLSCAASGIISPFYAMGWYRQATGKERELVADISTGGTTTYADSVKGRFTISRDNAKNTVYLQLNSLKPEDTAVYYCNAEVSLTYYWIVWASYDYWGQGTQVTVSS | low polyreactivity
4 | QVQLVESGGGLVQAGGSLRLSCAASGIISRVYAMGWYRQAPGKERELVAAISGSGGTTYYADSVKGRFTISRDNAKNTVYLQMNSLKPEDTAVYYCAARYKALYDYWGQGTQVTVSS | high polyreactivity
5 | QVQLVESGGGLVQAGGSLRLSCAASGIISSVYAMGWYRPAPGKERELVAAISGSGGSTYYADSVKGRFTISRDNAKNTVYLQMNSLKAEDTAVYYCAKGYQYQGNSYGYWGQGTQVTVSS | low polyreactivity
6 | QVQLVESGGGLVQAGGSLRLSCAASGIIVDFYAMGWYRQAPGKERELVAGISWGGGTTYYADSVKGRFTISRDNAKNTVYLQMNSLKPEDTAVYYCAAVAFQTRYYYWGQGTQVTVSS | high polyreactivity
7 | QVQLVESGGGLVQAGGSLRLSCAASGIIVDYYAMGWYRQAPGKERELVATITSGGSTNYADSVKGRFTISRDNAKNTVYLPMNSVKPEDTAVYYCAARTYWFPDIYPGLGMDYWGQGTQVTVSS | low polyreactivity
8 | QVQLVESGGGLVQAGGSLRLSCAASGIIYIGNAMGWYRQAPGKERELVAAITYTGGSTYYADSVKGRFTISRDNAKNTVYLQMNSLKPEDTAVYYCDFDRTHLEDDYWGQGTQVTVSS | low polyreactivity
9 | QVQLVESGGGLVQAGGSLRLSCAASGIIYTTNAMGWYRQAPGKERELVAAIRRSGSTYYADSVKGRFTISRDNAKNNVYLQMNSLKPEDTAVYYCNAKVHYGSRGDYWGQGTQLTVSS | low polyreactivity
10 | QVQLVESGGGLVQAGGSLRLSCAASGIIYYLYAMGWYRHAPGKERELVATISRRGGSTYYADSVKGRFTISRDNAKNTVYLQMNSLKPEDTAVYYCATGHYSVGRSFSSGSYEYWGQGTQVTVSS | high polyreactivity
11 | QVQLVESGGGLVQAGGSLRLSCAASGILFGPYAKGWYRQAPGKERELVAVISGSGGSTNYADSVKGRFTISRDNGKYTVYLQMNSLKPEVTAVYYCAADSLSKVCYYYWGEGTQVTVSS | low polyreactivity
12 | QVQLVESGGGLVQAGGSLRLSCAASGILFYLNAMGWYRQAPGKERELVASISTGGGTNYADSVKGRFTISRDYAKNTVYLQMNSLKPEDTAFYYCAAKRRNTYTLYYYWGQGTQVTVSS | high polyreactivity
13 | QVQLVESGGGLVQAGGSLRLSCAASGINFGKYAMGWYRQAPGKERELVAAITSGDSTYYADSVKGRFTISRDNAKNTVYLQMNSLKPEDTAVYYCNADAWRSQSWWHGLMEYWGQGTQVTVSS | low polyreactivity
14 | QVQLVESGGGLVQAGGSLRLSCAASGINFGSNAMGWYRQAPGKERELVAAISKRGGNTYYADSVKGRFTISRDNAKNTVYLQMNSLKPEYTAVYYCATQQYLYAQKSYVEMDYWGQGTQVSVSS | high polyreactivity
15 | QVQLVESGGGLVQAGGSLRLSCAASGINFNLYAMGWYRQAPGKERELVAAISRSGDSTNYADSVKGRFTISRDNAKNTVDLQMNSLKPEDTAVYYCAVGYRYLKWVDYWGQGTQVTVSS | high polyreactivity
16 | QVQLVESGGGLVQAGGSLRLSCAASGINFVGYAMGWDRQAPGKERELVAAISTSSRTYYADSVKGRFTISRDNAKNTVYIQMNSLKPEDTAVYYCNARGTRWYYRHDYWGQGTQVTVSS | high polyreactivity

Row | Sequence | polyreactivity (PSR sort gate)
17 | QVQLVESGGGLVQAGGSLRLSCAASGINFVKYTMGWYRQAPGKERELVAAITWTVGSTYYADSVKGRFTISRDNAKNTVYFQMNSLKPEDTAVYYCAARYYYWGQGTQVTGSS | high polyreactivity
18 | QVQLVESGGGLVQAGGSLRLSCAASGINIRYYAMGWYRQAPGKERELVADITTGGTTYYADSVKGRFTISRDNAKNTVYLQMNSLKPEDTAVYYCAAYYFPTYSKTYIYPFDYWGQGTQVTVSS | low polyreactivity
19 | QVQLVESGGGLVQAGGSLRLSCAASGINISYYAMGWYRQAPGKEREFVAAISWSVGSTYYADSVKGRFTISRDNAKYTVYLQMNSLKPEDTAVYYCAAEDGYWPTYYYWGQGSQVTVSS | high polyreactivity
20 | QVQLVESGGGLVQAGGSLRLSCAASGINTAGYAMGWYRQAPGKERELVAAISTSGTSTYYADSVKGRFTISRDNAQNTVYLQMNSLQPEDTAVYYCAYTNYYGVGYYYWGQGTLVTVSS | low polyreactivity
21 | QVQLVESGGGLVQAGGSLRLSCAASGINYTFYAMGWYRQAPGKERELVAAISYSSGSTYADSVKGRFTISRDNAKNTVYLQMNSLKPEDTAVYYCAVDLFPGHSYTYDYWGQGTQVTVSS | low polyreactivity
22 | QVQLVESGGGLVQAGGSLRLSCAASGIQVYNAMGWYRQAPGKERELVAAISARGGRTYYADSVKGRFTISRDNAKNTVYLQMNSLKPEDTAVYYCATLETTGVNYWGQGTLVTVSS | high polyreactivity
23 | QVQLVESGGGLVQAGGSLRLSCAASGISFAIYAMGWYRQAPGKERELVAAISARGGTYYADSVKGRFTISRDNANNTVYSQMNSLKPEDTAVYYCNTDYVSRDDWDYRRYDYWGQGTQVTVSS | low polyreactivity
24 | QVQLVESGGGLVQAGGSLRLSCAASGISFNGNAMGWYRQAPGKERELVAAISGSGGSTYYADSVKGRFTISRDNAKNSVYLQMNSLKQEDTAVYYCNALYGRRVYVGYDYWGQGSQVTVSS | high polyreactivity
25 | QVQLVESGGGLVQAGGSLRLSCAASGITFADNSMGWYRQAPGKERELVAAISRGGSTYYADSVKGRFTISRDNAKNTVYLQMNSLKPEDTAVYYCAAAGWWRAWGSYLRFYGYDYWGQGTQVTVSS | low polyreactivity
26 | QVQLVESGGGLVQAGGSLRLSCAASGITFADYAMGRYRQAPGKERELVAAISSGTSTYYADSVKGRFTISPDNAKNTVYLQMNSLKPEDTAVYYFYARYWGRVPPPAYDPRRYWGQGTQVTVSS | high polyreactivity
27 | QVQLVESGGGLVQAGGSLRLSCAASGITFADYVMGWYRPAPGKERELVAAISTDGGSTYYADSVKGRFTISRDNAKNTVYLQMNSLKPEDTAVYYCASEWSYPGYEFDYWGQGTQVTVSS | high polyreactivity
28 | QVQLVESGGGLVQAGGSLRLSCAASGITFAKYAMGWYRQAPGKERELVAAISTSGGSTYYADSVKGRFTISRDNAKNTVYLQMYSLKPEDTAVYYCNVDTYIWYYLRYYNYWGQGTQVTVSS | high polyreactivity
29 | QVQLVESGGGLVQAGGSLRLSCAASGITFAPYAMGWYRQAPGKERELVAVISSGGSTKYADSVKGRFTISRDNAKNTVYLQMNSLKPEDTAVYYCAASAPRGYGYKYYYWGQGTQVTVSS | high polyreactivity
30 | QVQLVESGGGLVQAGGSLRLSCAASGITFARYTMGWYRQAPGKERELVAAISWSGTSTYYADSVKGRFTISRDNAKNTVYLQMNSLKPEDTAVYYCAAGYSASRKVDYWGQGTQVTVSS | high polyreactivity
31 | QVQLVESGGGLVQAGGSLRLSCAASGITFAYYAMGWYRQAPGKERELVAGISKSGGRTYYADSVKGRFTISRDNAKNTVYVQLNSLKPEYTAVYYCASQDARRIVYDRYYYWGQGTQVTVSS | high polyreactivity
32 | QVQLVESGGGLVQAGGSLRLSCAASGITFAYYVMGWYRPAPGKERELVAVISSRGSRTFYADSVKGRFTISRDNAKNTVYLQMNSLKPEDTAVYYCAADSTYSYYWGQGTQVTVSS | high polyreactivity
